Source: the supplement of paper PMC9170038

Test system: MS2 coat protein
Assay: apparent KD of MS2 coat protein; designed switch direction (-1 OFF switch, 1 ON switch): -1; higher = weaker reporter binding
Procedure, shortened: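 The reported apparent KD is a per-design median over clusters, from curve fits of normalised cluster fluorescence. Protein titrations used SNAP-549-labelled MS2 coat protein, doubled from 0.7 or 1.5 nM to 3 µM, in Tris-HCl pH 7.5 buffer with KCl, MgCl2, BSA, DTT, tRNA and Tween-20, with no input, 200 uM small-molecule ligand, or an oligonucleotide input. The RNA switches were transcribed on Illumina chips by stalled E. coli RNA polymerase.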

[1] = Eterna round: R95, input ligand: FMN 200 uM
[2] = Eterna round: R95, input ligand: microRNA oligo, concentration not stated
[3] = Eterna round: R95, input ligand: none
[4] = input ligand: microRNA oligo, concentration not stated

| Sequence | apparent KD of MS2 coat protein [1] | apparent KD of MS2 coat protein [2] | apparent KD of MS2 coat protein [3] | apparent KD of MS2 coat protein (input ligand: FMN 200 uM) | apparent KD of MS2 coat protein [4] | apparent KD of MS2 coat protein (input ligand: none) |
| --- | --- | --- | --- | --- | --- | --- |
| AGUACGAUGCGUGCUGACAUGCGUCGUGCAGCAGGUGAUACAUGAGGAUCACCCAUGUCCUCAUUUGCUCGUCUUGU [Mat - Sensor v3 - Turn-off var 2 - D18] (puzzle: Sensor v3, turn-off variant 2) | 37.2 nM | 257 nM | 36.1 nM | – | – | – |
| CAGACACAUGAGGAUCACCCAUGUGAGGAUAUGCGUACGUUGUCCGUAGGCGACGUGCGCAGAAGGCGCAAAGG [JL-ex1-3.10 Eli mod] (puzzle: Exclusion 1) | 65.7 nM | 67 nM | 79.4 nM | – | – | – |
| CCGGCAUGGUGCGGUAGUUGUACAACAUGAGGAUCACCCAUGUAGGAUAUGCGCGUGGUCACGCCGCAGAAGGACAACGUAUGG [Random, 25% A] (Eterna round: R96, puzzle: Exclusion NG 3) | – | – | – | 668 nM | 89.4 nM | 96 nM |
| AAGAAGAAGUAAGGAUAUGAAGAUUUGGUGGUGACAUGAGGAUCACCCAUGUGAAAACAAUAAGAUCAGAAGGUAUAAGAAGAA [AK ExNG2-3] (Eterna round: R96, puzzle: Exclusion NG 2) | – | – | – | 522 nM | 434 nM | 405 nM |
| AAACCACAUGAGGAUCACCCAUGUGAGGAUAUGAUACUAUGUACUUCGGUACAUAGUAUCAGAAGGCAUAUGAA [Ex1-3: 48] (puzzle: Exclusion 1) | – | 24.4 nM | – | – | – | – |
| AAGAAGAUAGGAUAUACGAGGAGAGGAGAGAAGAGGUGAGGACAUGAGGAUCACCCAUGUAGAAGGAUCAGGAA [JR_Exclu2_Sub063] (Eterna round: R96, puzzle: Exclusion 2) | – | – | – | 169 nM | 91 nM | 109 nM |
| UACUACGCAGGAUAUACAUGAGGAUCACCCAUGUGUCUGCGAUAGGCACGUGAAAUCCGUAGAAGGGUGUAGAU [Exclusion 3 - Oddities v.2] (puzzle: Exclusion 3) | – | 35.9 nM | – | – | – | – |
| GAUUAUGCGAGCUUUAGGGACAUGAGGAUCACCCAUGUUCGUCUUAUUAGUCUAAGUACACUGACAUACCUAAAUCU [JMF 61] (puzzle: Sensor v3, turn-off variant 1) | 13.3 nM | 14.2 nM | 12.4 nM | – | – | – |
| AAAACGUCAGGAUAUCCAAUAUAUGACAUGAGGAUCACCCAUGUUUCCACUCGUACCUCCGGAGAAGGGACUAAUA [Ex5 #84] (Eterna round: R97, puzzle: Exclusion 5) | – | – | – | 34.7 nM | – | 38.2 nM |
| GUCCAGUUAGGAUAUCAAUGCCACAACAUGAGGAUCACCCAUGUUUGGGUCCCUCACCAAUGAGAAGGAACGGGAC [Esteenedso] (puzzle: Exclusion 5) | – | 32.1 nM | – | – | – | – |
| AAUAACAGAGGAUAUACUAUUUUAUGUAUUUAUUAUUUUGAACAUGAGGAUCACCCAUGUAGAAGGCUGAGUAA [JMF 35] (puzzle: Exclusion 2) | – | 25.3 nM | – | – | – | – |
| AGUAGUUGUUUCCGUUCUUACAUGAGGAUCACCCAUGUUUCUUGUCGUGCUCGCGUUGCUCGUCAGACUACCAGUUG [salish99_TOv1_r3_061] (puzzle: Sensor v3, turn-off variant 1) | 62.4 nM | 73.7 nM | 87.6 nM | – | – | – |
| AAAAUGGUCUAGGAUAUGACAAAUCUGAGCACGUCAGAAGGAGACACAUGAGGAUCACCCAUGUGGGUGCGAAA [Erteedza] (puzzle: Exclusion 6) | 324 nM | 31.8 nM | 35.2 nM | – | – | – |
| AUUUAGAGAGGAUAUAUUAUGUGAAACAUGAGGAUCACCCAUGUAAUAUGAUGGAUGUAAAUAGAAGGCUCAUUUA [Mat - Exclusion 5 - JL mod - D23] (puzzle: Exclusion 5) | 32.9 nM | 43.5 nM | 56.4 nM | – | – | – |
| ACAAGUUUUUAGAUUCUUAACAUGAGGAUCACCCAUGUGCUCGUCUUGUUUGUACUAUCACCGAAGGUGAUAGUACA (Eterna round: R97, puzzle: Sensor, turn-off variant 1) | – | – | – | 69.9 nM | – | 70 nM |
| GCAGGAUAAGUCAGGAUAUACCUAUGGAUACAUAGGUAGAAGGGACAUGAGGAUCACCCAUGUGACUCACCUGC [Fiskers BMX 4 - 62] (puzzle: Brourd's mod of Exclusion 4) | 95.6 nM | 27.8 nM | 27 nM | – | – | – |
| UUUGUUUAUGUAGGAUAUGCCUGGCGUGCCUUCGCAGAAGGACAUGAGGAUCACCCAUGUAUUGCGGUCUGCGUUCAGAUCGCU [salish99_ExNG1_r4_030] (Eterna round: R96, puzzle: Exclusion NG 1) | – | – | – | 46.8 nM | 29.1 nM | 41.8 nM |
| AAAAAAAGACAAGAGGAGAAUCGUCUUAAAAAUCCUCAGACAUGAGGAUCACCCAUGUAAAAUGAUCGAAAGAUCAA [Mat - Sensor v2 - ver2 - JL mod - D42] (Eterna round: R96, puzzle: Sensor v2, turn-off variant 2) | – | – | – | 39.7 nM | 40 nM | 40.6 nM |

| Sequence | apparent KD of MS2 coat protein [1] | apparent KD of MS2 coat protein [2] | apparent KD of MS2 coat protein [3] | apparent KD of MS2 coat protein (input ligand: FMN 200 uM) | apparent KD of MS2 coat protein [4] | apparent KD of MS2 coat protein (input ligand: none) |
| --- | --- | --- | --- | --- | --- | --- |
| AAGUACUACAAGCUUCGGGACAUGAGGAUCACCCAUGUUCGUCUUAUUGAUCUAGGUACGCUGACGUACCUAGAUCA [Mat - Sensor v3 - turn-off var 1 - JL Mod - D12] (puzzle: Sensor v3, turn-off variant 1) | 14.9 nM | 59.4 nM | 14.7 nM | – | – | – |
| CUUUAGUGAGGAUAUCAGUAGUAAUACAAUAGUAUUACUACUGAGAAGGCACAUGAGGAUCACCCAUGUUUCUC [Mat - Exclusion 4 - Mod of Omei - D78] (puzzle: Exclusion 4) | – | 28 nM | – | – | – | – |
| GCCGUGCAAGGAUAUCGCGGAAAGAACAUGAGGAUCACCCAUGUGAUCACCUUCUAAAUGCGAGAAGGUGCUAAAA [Axebied] (puzzle: Exclusion 5) | 75.7 nM | 56 nM | 81.4 nM | – | – | – |
| AAAUCGGAGGAGGAUAUGGUACAGGAAACGGUGCCAGAAGGUUUCACAUGAGGAUCACCCAUGUCAAAUAGCGA [EX6 #59] (Eterna round: R97, puzzle: Exclusion 6) | – | – | – | 21.3 nM | – | 20.3 nM |
| UUAAUUAAUUUAAUAUAAGAUCACAUGAGGAUCACCCAUGUAUAGGAUAUCAGCUCGUGUAGAGCUGAGAAGGAUACAUAAUAU [ExNG3/2-B3] (Eterna round: R96, puzzle: Exclusion NG 3) | – | – | – | 105 nM | 161 nM | 155 nM |
| AGCGCCAUCGUGAGAUGGCGUAUUACAUGAGGAUCACCCAUGUAGGAUAUCGAUUGCUUUGCAGUCGAGAAGGACAUGUUCUAG [JL ENG3 3.80 Mod A] (Eterna round: R96, puzzle: Exclusion NG 3) | – | – | – | 95.5 nM | 35.9 nM | 60.6 nM |
| AAUAAUAAGGAGGAUAUCGUAUCGGAAACGAUACGAGAAGGUCUAACAUGAGGAUCACCCAUGUUCCUCAAAUA [Mat - Exclusion 6 - Eli Mod - D44] (puzzle: Exclusion 6) | – | 37.1 nM | – | – | – | – |
| CUGUAGUCAGGAUAUACAUGAGGAUCACCCAUGUAAAAUUUUAAUUUAAUUUGAAGGUGUAGAAGGGACCAGUC [Ex3 #26] (Eterna round: R97, puzzle: Exclusion 3) | – | – | – | 30.1 nM | – | 38.5 nM |
| GGUGUGAGGCAGGAUAUGCAAUAUGUAAGUAAUGCAGAAGGGUCUACAUGAGGAUCACCCAUGUGUGCGGUAGA [Ex6 #3] (Eterna round: R97, puzzle: Exclusion 6) | – | – | – | 251 nM | – | 140 nM |
| AACCCUGUAGGAUAUCAGGGACUACACAUGAGGAUCACCCAUGUGACCUCAACCUAGUGUUGAGAAGGACAGGUAU [Eternabot (Original) Solution 22] (Eterna round: R97, puzzle: Exclusion 5) | – | – | – | 50.9 nM | – | 49.1 nM |
| ACACCACAUGAGGAUCACCCAUGUAAGGAUAUAACGCAUCCGCGUAACUGCGGGCAAGUUAGAAGGUGUAUGGG [Eternabot (L2) Solution 91] (Eterna round: R97, puzzle: Exclusion 1) | – | – | – | 91.9 nM | – | 49.6 nM |
| CCGGAAAUGGAGGAUAUAGGAGUCGAUAGACACCUAGAAGGUCAGACAUGAGGAUCACCCAUGUGUCCUACCGG [Fiskers Ex 6 - 88] (puzzle: Exclusion 6) | – | 14.9 nM | – | – | – | – |
| CCGGAAUUGCAGGAUAUAGGAGUCGAUAGACACCUAGAAGGGCAGACAUGAGGAUCACCCAUGUGUCCUACCGG [Fiskers Ex 6 - 84] (puzzle: Exclusion 6) | – | 17.4 nM | – | – | – | – |
| CUUGUUUAUGUGAGGAUAUACUGUUAGUAAUGUUUGUAGAAGGUACAUGAGGAUCACCCAUGUUUAUUUAUAUU [JR_BME4_Sub043] (puzzle: Brourd's mod of Exclusion 4) | – | 18.1 nM | – | – | – | – |
| CACGAAUAGUGAGGAUAUGUGCGACAAAGUUGCACAGAAGGCACAUGAGGAUCACCCAUGUAAGCUAGGUCGAAAGACCUAGCG [Omei Exc(NG)1 A] (Eterna round: R96, puzzle: Exclusion NG 1) | – | – | – | 37.4 nM | 15.3 nM | 24.2 nM |
| CGCUGGACAGGAUAUGUUCUUGAGCACUUGAGGAUCACCCAAGUCAUCAAGAACUCAGGCACAGAAGGGUUUAUGG [salish99_ex5_r4_016] (Eterna round: R97, puzzle: Exclusion 5) | – | – | – | 24.6 nM | – | 13.4 nM |
| AGUCGGUCAGGAUAUGCAAACGUGGACAUGAGGAUCACCCAUGUAACGUGGGCCUGGUUUGUAGAAGGGACGAGCA [EX5 #86] (Eterna round: R97, puzzle: Exclusion 5) | – | – | – | 35.1 nM | – | 34.5 nM |
